Consider four molecules from patent US20230049152A1 (Genentech, published 2023).

One assay deals with T1, human ACKR4 (human, UniProt Q9NPB9 1-350).
T1 construct: whole, on cells; transiently expressed on HEK293 cells
T1 sequence (looked up): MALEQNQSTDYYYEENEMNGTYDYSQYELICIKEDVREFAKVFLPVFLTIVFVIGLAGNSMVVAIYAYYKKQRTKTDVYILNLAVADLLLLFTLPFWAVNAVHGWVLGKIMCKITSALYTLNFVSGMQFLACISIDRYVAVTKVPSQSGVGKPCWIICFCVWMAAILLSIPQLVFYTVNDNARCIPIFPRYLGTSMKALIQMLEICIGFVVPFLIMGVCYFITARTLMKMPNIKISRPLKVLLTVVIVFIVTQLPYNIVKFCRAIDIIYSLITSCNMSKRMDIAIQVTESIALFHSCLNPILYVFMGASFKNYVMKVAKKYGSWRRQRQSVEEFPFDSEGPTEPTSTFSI
Put plainly: flow cytometry, HEK293 with N-term FLAG-tagged human ACKR4. An excerpt:
FIGS. 4A-4F depicts the binding data of hu.Ab3.H1L1 (FIG. 4A), hu.Ab4.H1L1 (FIG. 4B), and hu.Ab5.H1L1 (FIG. 4C), as well as the commercial anti-CCR8 mAbs murine anti-human CCR8 mAb 433H (BD Biosciences) (FIG. 4D), and murine anti-human CCR8 mAb L263G8 (Biolegend) (FIG. 4E), and the humanized anti-human Yoshida anti-CCR8 mAb (FIG. 4F), to HEK293 cells that were transiently transfected with N-term FLAG-tagged plasmids encoding for human GPCRs (CCR2, CCR3, CCR4, CCR5, CCR8, CXCR4, ACKR2, and ACKR4), hCCR8 constructs, or with a mock construct using transIT X2 (reagent:DNA=3:1).
To confirm the selectivity to CCR8, the binding of hu.Ab3.H1L1, hu.Ab4.H1L1, and hu.Ab5.H1L1, as well as the Yoshida humanized anti-human CCR8, murine anti-human CCR8 mAb L263G8 (Biolegend, Commercial Ab) and murine anti-human CCR8 mAb 433H (BD Biosciences, Commercial Ab), were characterized by flow cytometry on HEK293 cells that were transiently transfected with plasmids encoding for FLAG-tagged other related human GPCRs (CCR2-5, CXCR4, ACKR2, and ACKR4). Cell surface expression of each GPCR was confirmed by staining with an anti-FLAG antibody control. […]

Another assay deals with T2, GST-FcgR3a.F158 (UniProt P08637 17-208, limits assumed).
T2 construct: Captured by anti-GST antibody on ELISA plate; also called FcgR3a.F158 protein; Fcgamma RIIIa F158; not shown: GST tag
Put plainly: ELISA, GST-FcgR3a.F158 captured by anti-GST antibody. As for the experimental part: The binding of fucosylated and afucosylated variants of hu.Ab5.H13L1 and hu.Ab4.H12L3 to both FcgR3a proteins by ELISA was studied. Briefly, an anti-GST antibody was coated on Nunc Maxisorp plates. GST-FcgR3a.V158 and GST-FcgR3a.F158 were captured at 500 ng/mL. Plates were then washed and then serially diluted anti-CCR8 antibodies starting at 100 ug/mL were incubated on the plate for 1 hour at room temperature. Plates were washed and bound antibody was detected by a HRP-conjugated anti-human IgG secondary antibody. Absorbance at 450 nm was measured by a plate reader. The data were fitted using a 4-parameter logistic curve in Softmax Pro.

A further assay concerns the target T3, human CCR4 (human, UniProt P51679 1-360).
T3 construct: whole, on cells; transiently expressed on HEK293 cells
T3 sequence (looked up): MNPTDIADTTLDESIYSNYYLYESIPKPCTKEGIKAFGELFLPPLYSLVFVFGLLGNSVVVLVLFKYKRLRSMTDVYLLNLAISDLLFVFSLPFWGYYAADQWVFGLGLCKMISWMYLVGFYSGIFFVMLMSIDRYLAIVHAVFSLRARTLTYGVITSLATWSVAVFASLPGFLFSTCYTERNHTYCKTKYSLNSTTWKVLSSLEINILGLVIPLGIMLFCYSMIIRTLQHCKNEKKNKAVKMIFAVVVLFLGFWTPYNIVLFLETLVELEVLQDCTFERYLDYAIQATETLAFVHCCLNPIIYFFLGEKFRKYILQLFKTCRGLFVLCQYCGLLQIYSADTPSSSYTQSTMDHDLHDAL
Briefly: flow cytometry, HEK293 with N-term FLAG-tagged human CCR4, procedure of FIG. 4. An excerpt: To confirm the selectivity to CCR8, the binding of hu.Ab3.H1L1, hu.Ab4.H1L1, and hu.Ab5.H1L1, as well as the Yoshida humanized anti-human CCR8, murine anti-human CCR8 mAb L263G8 (Biolegend, Commercial Ab) and murine anti-human CCR8 mAb 433H (BD Biosciences, Commercial Ab), were characterized by flow cytometry on HEK293 cells that were transiently transfected with plasmids encoding for FLAG-tagged other related human GPCRs (CCR2-5, CXCR4, ACKR2, and ACKR4). Cell surface expression of each GPCR was confirmed by staining with an anti-FLAG antibody control. In particular, HEK293 cells were transfected with N-term FLAG-tagged human CCR2, CCR3, CCR4, CCR5, CXCR4, ACKR2, ACKR4, hCCR8 constructs, or with a Mock construct using transIT X2 (reagent:DNA=3:1) for 24 hours, and surface stained with various anti-hCCR8 monoclonal antibodies at 5 ug/ml, or rabbit anti-Flag pAb (Sigma) followed by AF647-anti-hIgG or AF647-anti-RbIgG respectively. Antibodies hu.Ab4.H1L1, and hu.Ab5.H1L1, only stained the hCCR8-containing cells, confirming their specificity to hCCR8. […] Thus, the CCR8 selective hu.Ab4.H1L1 and hu.Ab5.H1L1 antibodies with the best ADCC activities were carried forward.
To reconfirm that the Ab4 and Ab5 variants remained selective to CCR8 compared to the corresponding HIL1 variants, binding was analyzed by flow cytometry following the procedure as described for FIG. 4A and FIG. 4B. […]

The target in a further assay is T4, cyno CCR8 (cynomolgus monkey, UniProt O97665 1-356 (rhesus entry)).
T4 construct: also called cynomolgus monkey CCR8
Put plainly: radioligand competition, 125I-labelled IgG versus unlabelled IgG on CHO cells stably expressing cyno CCR8. As to the method:
(§1) Cell-based affinity measurements were performed using radiolabeled IgGs and CHO cell lines stably expressing human or cyno CCR8 for hu.Ab5.H13L1 and hu.Ab4.H12L3.
(§2) Briefly, stable CHO cells expressing human or cyno CCR8 were seeded in cold binding buffer (Opti-MEM+2% FBS+50 mM HEPES, pH 7.2+0.1% Sodium Azide) at 50,000 cells per well. A fixed concentration of ¹²⁵I-anti-CCR8 radiolabeled using the NEX244 Iodogen method (Perkin Elmer) was mixed with serially diluted anti-CCR8 antibodies starting at 20 nM or 50 nM. The antibody mixture was added to the cells and incubated at room temperature for 12 hours under gentle agitation. The cells and antibodies were then transferred to Millipore multiscreen filter plates. The filter plates were washed 4 times with 250 μL of cold binding buffer and dried for at least 30 minutes and the filters were punched into 5 mL polystyrene tubes. The radioactivity was measured using a Perkin Elmer Wallac Wizard 2470 Gamma Counter set at 1 count per minute with 0.8 counting efficiency. The data were fitted using the heterologous one site-fit Ki competitive binding model in GraphPad Prism.

Another assay has as its target T5, human CCR8 (human, UniProt P51685 1-355).
T5 construct: the assay field says which; also called hCCR8; huCCR8
Put plainly: radioligand competition on CHO cells stably expressing human CCR8: fixed 125I-anti-CCR8 against serially diluted unlabelled antibody. As to the method:
as §1, §2

T4 sequence (O97665 other isoform, or with tags, fused parts or gaps): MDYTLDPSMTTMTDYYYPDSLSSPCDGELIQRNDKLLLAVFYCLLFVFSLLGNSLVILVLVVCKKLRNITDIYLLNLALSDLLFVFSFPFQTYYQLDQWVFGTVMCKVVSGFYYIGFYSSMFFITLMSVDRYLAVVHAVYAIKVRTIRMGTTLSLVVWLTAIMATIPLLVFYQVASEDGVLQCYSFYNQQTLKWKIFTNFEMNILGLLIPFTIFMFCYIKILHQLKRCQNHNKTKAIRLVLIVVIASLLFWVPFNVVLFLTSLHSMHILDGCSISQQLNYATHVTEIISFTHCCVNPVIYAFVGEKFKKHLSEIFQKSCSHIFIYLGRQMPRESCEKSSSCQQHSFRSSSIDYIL
T2 sequence (P08637 17-208 limits assumed): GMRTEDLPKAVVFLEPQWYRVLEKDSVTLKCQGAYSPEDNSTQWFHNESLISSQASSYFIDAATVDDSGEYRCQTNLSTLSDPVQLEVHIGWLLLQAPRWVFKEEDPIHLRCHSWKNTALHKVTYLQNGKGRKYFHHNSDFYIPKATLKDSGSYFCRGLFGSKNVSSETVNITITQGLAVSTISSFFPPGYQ

B1: hu.Ab4.H1L1 (antibody, human IgG1, kappa)
heavy: not shown
light: DYQMTQSPSSLSASVGDRVTITCQASQSISSYLSWYQQKPGKRPKLLIYKASTLASGVPSRFSGSGSGTDFTLTISSLQPEDFATYYCQQGYTSSNIDNIFGGGTKVEIKRTVAAPSVFIFPPSDEQLKSGTASVVCLLNNFYPREAKVQWKVDNALQSGNSQESVTEQDSKDSTYSLSSTLTLSKADYEKHKVYACEVTHQGLSSPVTKSFNRGEC
notes: also called hu.Ab4.H1Ll
As for B1, the binding result in the assay with human ACKR4 is given as “no binding (tested: 5 ug/ml)”.

B2: hu.Ab4.H12L3 (antibody, human IgG1, kappa)
heavy: not shown
light: DYQMTQSPSSLSASVGDRVTITCQASQSISSYLSWYQQKPGKAPKLLIYKASTLASGVPSRFSGSGSGTDFTLTISSLQPEDFATYYCQQGYTSSNIDNIFGGGTKVEIKRTVAAPSVFIFPPSDEQLKSGTASVVCLLNNFYPREAKVQWKVDNALQSGNSQESVTEQDSKDSTYSLSSTLTLSKADYEKHKVYACEVTHQGLSSPVTKSFNRGEC
notes: fucosylated human IgG1; also called huCCR8-Ab4.H12L3.hIgG1; Ab4 variant
In the assay with GST-FcgR3a.F158, B2 returned a concentration for a half-maximal effect (EC50) of 3.74 µg/mL. Besides, the binding result with human CCR4 was “no binding (tested: 5 ug/ml)”. In the assay with cyno CCR8, the Kd came to 0.0243 nM. The “IC50 (read off the curve)” value in the assay with human CCR8 is roughly 100 pM.

B3: hu.Ab5.H1L1 (antibody, human IgG1, kappa)
heavy: not shown
light: DIQVTQSPSSLSASVGDRVTITCQASENIANALAWYQQKPGKPPKFLIYGASNLASGVPSRFSGSGSGTDFTFTISSLQPEDIATYYCQQAYYGNSFVEGTFGGGTKVEIKRTVAAPSVFIFPPSDEQLKSGTASVVCLLNNFYPREAKVQWKVDNALQSGNSQESVTEQDSKDSTYSLSSTLTLSKADYEKHKVYACEVTHQGLSSPVTKSFNRGEC
For the molecule B3, the binding result in the assay with human ACKR4 is “no binding (tested: 5 ug/ml)”.

B4: hu.Ab5.H13L1 (antibody, human IgG1, kappa)
heavy: not shown
light: DIQVTQSPSSLSASVGDRVTITCQASENIANALAWYQQKPGKPPKFLIYGASNLASGVPSRFSGSGSGTDFTFTISSLQPEDIATYYCQQAYYGNSFVEGTFGGGTKVEIKRTVAAPSVFIFPPSDEQLKSGTASVVCLLNNFYPREAKVQWKVDNALQSGNSQESVTEQDSKDSTYSLSSTLTLSKADYEKHKVYACEVTHQGLSSPVTKSFNRGEC
notes: fucosylated human IgG1; also called Ab5 variant
B4 returned a half-maximal effective concentration (EC50) with GST-FcgR3a.F158 of 4.11 µg/mL. The binding result in the assay with human CCR4 is reported as “no binding (tested: 5 ug/ml)”. For the same molecule, the Kd with cyno CCR8 came to 0.0034 nM. In addition, the “IC50 (read off the curve)” value in the assay with human CCR8 is roughly 50 pM.
